Measured values taken from PMC4239663, “Structural basis for extracellular cis and trans RPTPσ signal competition in synaptogenesis” (Nature Communications, 2014).
Where a chain is given by its changes, count along the chain named. In names and notes the source's numbering stands. Several values for one entry are separate records, joined by “and”; a condition that tells them apart may be missing. Equal values may be shown once.

Legend:
[1] = target: human RPTPσ Ig1–3 (human)
[2] = target: human RPTPσ Ig1–3 WT, C-terminal Avitag, immobilized (human); experiment: SPR; equilibrium; biotinylated human RPTPσ Ig1–3 (wild type or mutants) immobilized on streptavidin-coated CM5 chips, mouse TrkC LRRIg1 as analyte; 10 mM HEPES pH 7.5, 150 mM NaCl, 0.01% Tween 20, 25 °C
[3] = target: human RPTPσ Ig1–3 R227A+R228A (R228A+R229A in human numbering), C-terminal Avitag (human); experiment: as above
chicken RPTPσ Ig1–3 = chicken RPTPσ Ig1–3 (chicken, UniProt F1NWE3 29-316); experiment: SPR; equilibrium; biotinylated chicken TrkC LRRIg1 variants immobilized on streptavidin-coated CM5 chips, chicken RPTPσ Ig1–3 as analyte; 10 mM HEPES pH 7.5, 150 mM NaCl, 0.01% Tween 20, 25 °C; 1 M MgCl2 regeneration for LRRIg1 2Q; settings: both partners purified
[4] = target: T1, mouse TrkC LRRIg1 (soluble) (mouse, UniProt Q6VNS1 32-302); experiment: SPR
T1 chain: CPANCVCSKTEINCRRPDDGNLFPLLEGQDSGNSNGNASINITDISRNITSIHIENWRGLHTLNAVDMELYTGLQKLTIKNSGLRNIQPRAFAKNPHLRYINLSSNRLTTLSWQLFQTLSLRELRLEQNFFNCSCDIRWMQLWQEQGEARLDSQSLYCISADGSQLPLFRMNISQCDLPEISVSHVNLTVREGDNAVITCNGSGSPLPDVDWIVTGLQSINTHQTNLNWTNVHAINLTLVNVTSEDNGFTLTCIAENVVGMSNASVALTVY

mouse TrkC LRRIg1 2Q = target: T2, mouse TrkC LRRIg1 2Q (Mus musculus); experiment: SPR
T2 chain: T1 chain with N37Q, N41Q

[5] = target: mouse TrkC LRRIg1, C-terminal Avitag, immobilized (mouse) (UniProt Q6VNS1); experiment: SPR; equilibrium; biotinylated mouse TrkC LRRIg1 (wild type or D240A+D242A) immobilized on streptavidin-coated CM5 chips, human RPTP proteins as analytes; 10 mM HEPES pH 7.5, 150 mM NaCl, 0.01% Tween 20, 25 °C; in Fig. 6a also with increasing HS or heparin-dp10
[6] = target: chicken TrkC LRRIg1 2N, C-terminal Avitag, immobilized (chicken, UniProt Q91044 32-302, N163Q | N232Q | N259Q | N267Q | N294Q, biotin on the Avitag (enzymatic)); experiment: SPR
mouse NGL-3 Ecto = target: T3, mouse NGL-3 Ecto (mouse, UniProt P0C192 39-574, biotin on the Avitag (enzymatic)); experiment: SPR
T3 chain: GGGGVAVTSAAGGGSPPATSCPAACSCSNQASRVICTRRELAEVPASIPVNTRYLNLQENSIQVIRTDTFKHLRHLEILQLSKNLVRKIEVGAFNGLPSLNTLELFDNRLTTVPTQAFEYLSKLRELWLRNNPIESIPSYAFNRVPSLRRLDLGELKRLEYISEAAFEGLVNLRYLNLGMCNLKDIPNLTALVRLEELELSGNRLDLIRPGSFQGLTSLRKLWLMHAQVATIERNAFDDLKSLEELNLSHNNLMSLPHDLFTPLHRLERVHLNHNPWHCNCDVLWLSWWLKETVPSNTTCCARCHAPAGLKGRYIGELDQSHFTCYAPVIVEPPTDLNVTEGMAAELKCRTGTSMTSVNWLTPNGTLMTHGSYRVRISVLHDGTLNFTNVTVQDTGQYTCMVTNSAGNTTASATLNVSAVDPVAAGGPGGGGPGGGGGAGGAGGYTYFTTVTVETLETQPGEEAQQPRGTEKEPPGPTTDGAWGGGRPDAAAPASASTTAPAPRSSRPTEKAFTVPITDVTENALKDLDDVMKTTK

[7] = target: T4, mouse TrkC LRRIg1, C-terminal Avitag, immobilized (mouse, UniProt Q6VNS1 32-302, biotin on the Avitag (enzymatic)); experiment: SPR
T4 chain: T1 chain

mouse TrkC LRRIg1, C-terminal Avitag, immobilized (from UniProt Q6VNS1 32-302) (domain or fragment)
induced presynaptic differentiation in rat hippocampal neurons co-cultured with COS-7 cells expressing mouse TrkC TM, with heparin-dp10 (30 μg/ml, ~10 μM) against mock [1]: 2 fold

mouse TrkC LRRIg1 (soluble) (from UniProt Q6VNS1 32-302) (domain or fragment)
Kd [2]: 1800 nM | Kd [3]: 7000 nM

B1: chicken TrkC LRRIg1cryst, C-terminal Avitag, immobilized (domain or fragment, UniProt Q91044 32-302, looked up)
chain: CPANCLCSKTDINCKKPDDGNLFPLLEGQDSRNITSIHIENWKNLQTLNAVDMELYTGLQRLTIRNSGLRNIQPRAFAKNPHLRYIDLSGNRLTTLSWQLFQTLRLFDLRLERNPFQCSCDIRWIQLWQEKGEANLQSQQLHCMNLDTAVILLRNMNITQCDLPEISVSHVNLTVREGENAVITCQGSGSPLPDVDWTVADLHSINTHQTNLQWTNVHAIQLTLVNVTSEDNGFLLTCIAENVVGMSQASVLLTVY
modifications: biotin on the Avitag (enzymatic)
notes: chicken TrkC LRRIg1, amino acids 32–302 of NCBI NM_205169.1, lacking residues 63–77; not shown: Avitag (BirA recognition site), C-terminal, kept
Kd (chicken RPTPσ Ig1–3): 4800 nM

B2: RPTPσ with the meB mini-exon inserted between R225 and V226 (domain or fragment)
chain: EEPPRFIKEPKDQIGVSGGVASFVCQATGDPKPRVTWNKKGKKVNSQRFETIEFDESAGAVLRIQPLRTPRDENVYECVAQNSVGEITVHAKLTVLREDQLPSGFPNIDMGPQLKVVERTRTATMLCAASGNPDPEITWFKDFLPVDPSASNGRIKQLRSGALQIESSEETDQGKYECVATNSAGVRYSSPANLYVRELREVRRVAPRFSILPMSHEIMPGGNVNITCVAVGSPMPYVKWMQGAEDLTPEDDMPVGRNVLELTDVKDSANYTCVAMSSLGVIEAVAQITVKSLPKA
Kd [4]: 4800 nM

B3: chicken TrkC LRRIg1 2N, C-terminal Avitag, immobilized (domain or fragment, UniProt Q91044 32-302, looked up)
chain: CPANCLCSKTDINCKKPDDGNLFPLLEGQDSGSSNGNTSINITDISRNITSIHIENWKNLQTLNAVDMELYTGLQRLTIRNSGLRNIQPRAFAKNPHLRYIDLSGNRLTTLSWQLFQTLRLFDLRLERNPFQCSCDIRWIQLWQEKGEANLQSQQLHCMNLDTAVILLRNMNITQCDLPEISVSHVNLTVREGENAVITCQGSGSPLPDVDWTVADLHSINTHQTNLQWTNVHAIQLTLVNVTSEDNGFLLTCIAENVVGMSQASVLLTVY
modifications: biotin on the Avitag (enzymatic)
notes: chicken TrkC LRRIg1, amino acids 32–302 of NCBI NM_205169.1, residues 63–77 re-added to LRRIg1cryst; not shown: Avitag (BirA recognition site), C-terminal, kept
Kd (chicken RPTPσ Ig1–3): 216 nM

B4: chicken TrkC LRRIg1 2Q, C-terminal Avitag, immobilized (domain or fragment, UniProt Q91044 32-302, looked up)
chain: B3 chain with N37Q, N41Q
modifications: biotin on the Avitag (enzymatic)
notes: chicken TrkC LRRIg1, amino acids 32–302 of NCBI NM_205169.1, residues 63–77 re-added with N68Q+N72Q; not shown: Avitag (BirA recognition site), C-terminal, kept
Kd (chicken RPTPσ Ig1–3): 38 nM

B5: human RPTPσ Ig1–3 (domain or fragment)
chain: EEPPRFIKEPKDQIGVSGGVASFVCQATGDPKPRVTWNKKGKKVNSQRFETIEFDESAGAVLRIQPLRTPRDENVYECVAQNSVGEITVHAKLTVLREDQLPSGFPNIDMGPQLKVVERTRTATMLCAASGNPDPEITWFKDFLPVDPSASNGRIKQLRSGALQIESSEETDQGKYECVATNSAGVRYSSPANLYVRVRRVAPRFSILPMSHEIMPGGNVNITCVAVGSPMPYVKWMQGAEDLTPEDDMPVGRNVLELTDVKDSANYTCVAMSSLGVIEAVAQITVKSLPKA
Kd (mouse TrkC LRRIg1 2Q): 140 nM | Kd [5]: 258 nM

B6: human RPTPσ Ig1–3 ΔK (K68A+K69A+K71A+K72A) (domain or fragment)
chain: B5 chain with K39A, K40A, K42A, K43A
Kd [4]: 2800 nM

B7: human RPTPσ Ig1–3 WT, C-terminal Avitag, immobilized (domain or fragment)
chain: B5 chain
modifications: biotin on the Avitag (enzymatic)
Kd [4]: 580 nM and 551 nM

B8: chicken RPTPσ Ig1–3, C-terminal Avitag, immobilized (domain or fragment)
chain: ESPPVFIKKPVDQIGVSGGVASFVCQATGDPKPRVTWNKKGKKVNSQRFETIEFDESAGAVLRIQPLRTPRDENIYECVAQNPHGEVTVHAKLTVLREDQLPPGFPNIDMGPQLKVVERTRTATMLCAASGNPDPEITWFKDFLPVDPSTSNGRIKQLRSGGLQIESSEETDQGKYECVASNSAGVRYSSPANLYVRELREVRRVAPRFSILPVSHEIMPGGNVNITCVAVGSPMPYVKWMQGAEDLTPEDDMPVGRNVLELTDVKDSANYTCVAMSSLGVIEAVAQI
modifications: biotin on the Avitag (enzymatic)
Kd [6]: 2500 nM

B9: chicken RPTPσ Ig1-3 ΔK (protein)
chain: ESPPVFIKKPVDQIGVSGGVASFVCQATGDPKPRVTWNAAGAAVNSQRFETIEFDESAGAVLRIQPLRTPRDENIYECVAQNPHGEVTVHAKLTVLREDQLPPGFPNIDMGPQLKVVERTRTATMLCAASGNPDPEITWFKDFLPVDPSTSNGRIKQLRSGGLQIESSEETDQGKYECVASNSAGVRYSSPANLYVRVRRVAPRFSILPVSHEIMPGGNVNITCVAVGSPMPYVKWMQGAEDLTPEDDMPVGRNVLELTDVKDSANYTCVAMSSLGVIEAVAQITVKS
Kd [6]: 2600 nM

B10: human RPTPσ Ecto (domain or fragment)
chain: EEPPRFIKEPKDQIGVSGGVASFVCQATGDPKPRVTWNKKGKKVNSQRFETIEFDESAGAVLRIQPLRTPRDENVYECVAQNSVGEITVHAKLTVLREDQLPSGFPNIDMGPQLKVVERTRTATMLCAASGNPDPEITWFKDFLPVDPSASNGRIKQLRSGALQIESSEETDQGKYECVATNSAGVRYSSPANLYVRVRRVAPRFSILPMSHEIMPGGNVNITCVAVGSPMPYVKWMQGAEDLTPEDDMPVGRNVLELTDVKDSANYTCVAMSSLGVIEAVAQITVKSLPKAPGTPMVTENTATSITITWDSGNPDPVSYYVIEYKSKSQDGPYQIKEDITTTRYSIGGLSPNSEYEIWVSAVNSIGQGPPSESVVTRTGEQAPASAPRNVQARMLSATTMIVQWEEPVEPNGLIRGYRVYYTMEPEHPVGNWQKHNVDDSLLTTVGSLLEDETYTVRVLAFTSVGDGPLSDPIQVKTQQGVPGQPMNLRAEARSETSITLSWSPPRQESIIKYELLFREGDHGREVGRTFDPTTSYVVEDLKPNTEYAFRLAARSPQGLGAFTPVVRQRTLQSISPKNFKVKMIMKTSVLLSWEFPDNYNSPTPYKIQYNGLTLDVDGRTTKKLITHLKPHTFYNFVLTNRGSSLGGLQQTVTAWTAFNLLNGKPSVAPKPDADGFIMVYLPDGQSPVPVQSYFIVMVPLRKSRGGQFLTPLGSPEDMDLEELIQDISRLQRRSLRHSRQLEVPRPYIAARFSVLPPTFHPGDQKQYGGFDNRGLEPGHRYVLFVLAVLQKSEPTFAASPFSDPFQLDNPDPQPIVDGEEG
Kd [5]: 516 nM | Kd (mouse NGL-3 Ecto): > 7300 nM | Kd [7]: 1500 nM
